From patent US20050136043A1, “TGFbeta signaling inhibitors” (Ludwig Institute for Cancer Research, priority 2003, published 2005)

How the values were obtained:
Mv1Lu cells = assay: Growth inhibition assay, [3H]thymidine incorporation; format: cell-based; details: peptide 50 μM, TGFβ1 0.1 ng/ml, 24 hours; for Reversion of the inhibitory action of TGFβ1 on DNA synthesis: FIG. 7
Protocol: Growth inhibition assay: Growth inhibition assay with MV1Lu cells, using evaluation of [^3H]thymidine incorporation, was performed as described earlier. Briefly, cells were preincubated with peptides for 30 min, and then treated or not with TGFβ1 (0.1 ng/ml) for 24 h. During the last two hours of incubation, [^3H]thymidine was added. Radioactivity incorporated into DNA was measured in a scintillation counter. No cytotoxic effects of peptides were observed after 24 h incubation with cells, as evaluated by observation of cells in a microscope.
To explore whether the antp-Sm2A (SEQ ID NO:2) peptide can interfere with the TGFβ-dependent effects on cells, we performed an assay with Mv1Lu cells, which are widely used in studies of TGFβ effects and are potently growth-inhibited by TGFβ [29]. […] [^3H]thymidine was added to cells for last two hours of incubation, and radioactivity incorporated into DNA was measured.

ActR-I (ALK-2) = biological target: T1, ActR-I (ALK-2) (Homo sapiens, UniProt Q04771); assay: In vitro kinase assay (autophosphorylation) of receptor expressed in COS-7 cells; format: biochemical; details: 10 μM peptide, FIG. 5
T1 sequence (Q04771 21-509): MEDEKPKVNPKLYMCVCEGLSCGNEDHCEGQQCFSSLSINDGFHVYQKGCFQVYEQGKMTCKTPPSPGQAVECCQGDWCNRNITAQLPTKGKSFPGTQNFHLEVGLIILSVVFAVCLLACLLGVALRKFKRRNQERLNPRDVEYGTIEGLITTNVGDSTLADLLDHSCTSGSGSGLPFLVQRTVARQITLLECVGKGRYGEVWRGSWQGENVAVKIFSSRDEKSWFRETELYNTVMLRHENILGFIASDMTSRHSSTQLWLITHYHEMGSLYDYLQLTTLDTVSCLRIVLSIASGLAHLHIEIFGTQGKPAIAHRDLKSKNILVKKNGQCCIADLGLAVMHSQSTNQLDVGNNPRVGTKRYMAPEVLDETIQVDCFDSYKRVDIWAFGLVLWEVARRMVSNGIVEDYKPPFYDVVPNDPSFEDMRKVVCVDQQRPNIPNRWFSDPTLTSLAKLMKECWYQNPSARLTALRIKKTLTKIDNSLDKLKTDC
Protocol: For in vitro kinase assay of type I and type II TGFβ family receptors, p38α and SAPKα2 kinases, COS-7 cells were transfected with the kinase expression vectors or the control empty pcDNA3 vector using the DEAE-dextran method. Proteins were extracted in a lysis buffer (50 mM Tris-HCl, pH 7.5, 50 mM NaCl, 1% NP-40, 10 μg/mL aprotinin, 0.1 mM PMSF). HA-tagged proteins (ALK1 to ALK7, p38R, SAPKR2) were immunoprecipitated with anti-HA antibody (12CA5; Roche); His6-tagged proteins (type II receptors) were precipitated with Ni-NTA agarose (Qiagen). The precipitates were washed in extraction buffer, with 20 mM imidazole for Ni-NTA agarose-precipitated proteins, and two times with kinase buffer (20 mM HEPES, pH 7.4, 10 mM MgCl2, 2 mM MnCl2, 1 mM DTT). The kinase reaction was initiated by addition of 20 μL of kinase buffer containing 0.5 μCi of [γ-32P]ATP, 5.0 μM ATP, and inhibitory peptides at a final concentration of 10 μM. The reaction was performed at 22° C. for 20 min and terminated by addition of SDS-containing sample buffer and boiling for 5 min. The reaction products were analyzed by SDS-PAGE and exposure in a Fuji X2000 phosphorimager. Equal loading was controlled by immunoblotting aliquots of the samples with a HA probe (Y-11; Santa Cruz) or anti-His antibody (Qiagen).
To evaluate whether the substrate-mimicking peptides affect kinases of type I and type II reptors of the TGFβ family, we studied the influence of peptides on authophosphorylation of all known mammalian type I receptors [ALK-1, ActR-I (ALK-2), BMPR-IA (ALK-3), ActR-IB (ALK-4), TβR-I (ALK-5), BMPR-IB (ALK-6), and ALK-7], TβRII, ActR-II, BMPR-II, p38R, and SAPKR2 (FIG. 5). The kinases were expressed in COS-7 cells and purified by using specific anti-tag antibodies or Ni-NTA agarose, and kinase activity was tested in the presence of peptides.

[1] = system: TGFβ1-dependent stimulation of ARE-luc in Mv1Lu cells; assay: ARE-luc luciferase reporter assay (Smad2-responsive element) in Mv1Lu cells; format: cell-based; details: peptide 50 μM, TGFβ1 10 ng/ml, 18 hours
GST-TβR-I = biological target: T2, GST-TβR-I (Homo sapiens, UniProt P36897, T204D); assay: Phosphorylation of GST-Smad2 by GST-TβR-I, in vitro kinase assay; format: biochemical; details: for Inhibition of phosphorylation at the C-terminus of GST-Smad2: FIG. 4B; for Concentration at which effect of Sm2 peptides was observed / Concentration of maximal inhibition: in vitro kinase assay; for Concentration of maximal inhibition: data not shown
T2 construct: the complete cytoplasmic part (amino acid residues 148-503) of constitutively active TβR-I (T204D) FLAG-tagged at the C-terminus; made in house; host or cells: E. coli
T2 sequence (P36897 148-503 T204D): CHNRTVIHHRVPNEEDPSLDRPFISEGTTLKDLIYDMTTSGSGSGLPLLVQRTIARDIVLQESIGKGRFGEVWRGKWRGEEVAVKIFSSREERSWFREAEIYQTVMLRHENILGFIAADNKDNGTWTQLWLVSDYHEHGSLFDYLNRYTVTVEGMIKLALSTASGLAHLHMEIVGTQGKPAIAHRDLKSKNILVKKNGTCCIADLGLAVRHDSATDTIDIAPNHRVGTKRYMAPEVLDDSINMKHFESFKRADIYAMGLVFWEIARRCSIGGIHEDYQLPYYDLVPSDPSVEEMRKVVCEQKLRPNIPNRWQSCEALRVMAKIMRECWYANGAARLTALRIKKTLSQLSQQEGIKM
Protocol: In vitro kinase assay: GST-TβRI activity was assayed in vitro using the known TβR-I substrates GST-Smad3deltaMH1, GST-Smad2; GST-Smad1 was used as a control for specificity. The reaction mixture (20 μl) contained 20 mM HEPES (pH 7.4), 10 mM MgCl2, 2 mM MnCl2, 1 mM dithiothreitol (DTT), 5 μM ATP plus 0.5 μCi [γ^32P]ATP (Redivue, Amersham Biosciences), and inhibitors at different concentrations. The reaction was initiated by an addition of 0.02 μg purified GST-TβRI, followed by incubation at 22° C. for 20 min. Reaction was terminated by addition of 5 μl of 5× SDS-sample buffer. Samples were subjected to SDS-PAGE followed by analysis in a FujiX2000 phosphorimager. For all in vitro enzyme assays, the percent inhibition was calculated as 100×(1-Ai/A0), where Ai and A0 are levels of GST-Smad phosphorylation in the presence and absence of inhibitors, respectively. […] Phosphorylated GST-Smad3deltaMH1 and autophosphorylated GST-TβRI were analyzed by tryptic phosphopeptide mapping, as described previously.
Phosphorylation of GST-Smad2 by GST-TβR-I was performed in an in vitro kinase assay (FIG. 4B). The peptides were added as indicated.

| Sequence | Reversion of the inhibitory action of TGFβ1 on DNA synthesis (Mv1Lu cells) | Effect on ActR-I (ALK-2) kinase (ActR-I (ALK-2)) | Effect on TGFβ1-dependent stimulation of ARE-luc [1] | Inhibition of phosphorylation at the C-terminus of GST-Smad2 (GST-TβR-I) | Concentration at which effect of Sm2 peptides was observed (GST-TβR-I) [µM] | Concentration of maximal inhibition (GST-TβR-I) [µM] | Inhibition of [3H]thymidine incorporation in response to TGFβ1 (Mv1Lu cells) [%] | Inhibition of TGFβ1-dependent stimulation of ARE-luc [1] |
| --- | --- | --- | --- | --- | --- | --- | --- | --- |
| RQIKIWFQNRRMKWKKTQMGSPSVRCSSMS (listed as Homo sapiens) [antp-Sm2S, penetratin fused to the C-terminus of wild-type Smad2] | reverted to a significant extent | without any effect | no effect | less pronounced | 10 | 200 | – | – |
| RQIKIWFQNRRMKWKKTQMGSPSVRCSAMA (listed as Homo sapiens) [antp-Sm2A] | reverted to a significant extent | without any effect | – | inhibited | 10 | 200 | 26 | up to 31% |
